pKd: −log10 of the molar value.
Experiments:
Assay in all cases: ITC; […]; 298 K; 20 mM HEPES pH 7.5, 150 mM NaCl; […]
[1] = target: 5HB-H4 (SARS-CoV-2 5-helix bundle, shortest construct) (SARS-CoV-2) (UniProt P0DTC2)
[2] = target: 5HB-H1 (SARS-CoV-2 5-helix bundle, longest construct) (SARS-CoV-2) (UniProt P0DTC2)
[3] = target: 5HB-H3 (SARS-CoV-2 5-helix bundle, truncated construct) (SARS-CoV-2) (UniProt P0DTC2)

With “HR2P, 36-mer peptide derived from SARS-CoV-2 S HR2 (D1168-L1203)” the pKd [1] was 6.35, the pKd [2] was 8.05 and the pKd [3] was 7.74.

Reference: paper PMC9359175
